# Source: patent US7488573B2, “In vivo angiogenesis assay” (Children's Hospital Medical Center, priority 2002, dated 2009)
# B1: Ang2: biotinylated recombinant human Ang2, available from Calbiochem (protein, UniProt O15123 19-496, looked up)
# Angiopoietin-2: YNNFRKSMDSIGKKQYQVQHGSCSYTFLLPEMDNCRSSSSPYVSNAVQRDAPLEYDDSVQRLQVLENIMENNTQWLMKLENYIQDNMKKEMVEIQQNAVQNQTAVMIEIGTNLLNQTAEQTRKLTDVEAQVLNQTTRLELQLLEHSLSTNKLEKQILDQTSEINKLQDKNSFLEKKVLAMEDKHIIQLQSIKEEKDQLQVLVSKQNSIIEELEKKIVTATVNNSVLQKQQHDLMETVNNLLTMMSTSNSAKDPTVAKEEQISFRDCAEVFKSGHTTNGIYTLTFPNSTEEIKAYCDMEAGGGGWTIIQRREDGSVDFQRTWKEYKVGFGNPSGEYWLGNEFVSQLTNQQRYVLKIHLKDWEGNEAYSLYEHFYLSSEELNYRIHLKGLTGTAGKISSISQPGNDFSTKDGDNDKCICKCSQMLTGGWWFDACGPSNLNGMYYPQRQNTNKFNGIKWYYWKGSGYSLKATTMMIRPADF
# modifications: biotin
# notes: biotinylated recombinant human Ang2, available from Calbiochem
# System: PM vascular system
# Assay: In vivo pupillary membrane (PM) angiogenesis assay in rat pups, transcorneal injection
# Design: species or system Sprague-Dawley rat
# Conditions: after 24 hours
# Experimental: A Sprague-Dawley rat pup, available from Taconic Farms (German Town, N.Y.), aged postconception (p.c.) day 30.5 to p.c. 34.5, was subdued with metaphane and subsequently anaesthetized with an intramuscular injection of ketamine and xylazine at 1.6 mg/g and […] respectively. The depth of anesthesia was monitored by paw pinch response and where necessary, the subject pup was maintained under anesthesia with additional doses of ketamine and xylazine intraperitoneally. The right eyelid of the rat pup was parted at the suture using a microdissecting vanna (Storz, St Louis), the eyeball gently raised, and the eyelids folded underneath to permit illumination of the eye with optic fibre light guides. The local anesthetic tetracaine hydrochloride (0.5%) was applied to the eyeball prior to parting of the eyelids. The rat pup was then placed in a silastic body mold designed to reduce movement, and kept warm with an overlaid heating element from a battery powered boot warmer (L. L. Bean, Maine). The liquid phase for the water immersion microscope objective was provided by addition of a bead of phosphate-buffered saline between the eyeball and the objective. Capillaries of the pupillary membrane were readily detected by searching through the focal axis. An eye holder as shown in FIG. 1 held the eyeball to limit movement, and to illuminate the interior of the eye.
# A 5× air objective of a Zeiss Axiophot microscope (Zeiss, Thornwood, N.Y.) was positioned above the cornea of an anaesthetized rat. A beveled glass needle mounted on a micromanipulator was axially apposed to the eye holder and in this position could penetrate the cornea for delivery of the test substance directly onto the pupillary membrane.
# A defined volume of a test substance was delivered to the anterior chamber using a Nanoject Variable injector (Drummond, Pa.).
# After the predetermined period of angiogenic progress, the rat pup was humanely sacrificed. The treated PM was prepared as a whole mount specimen by dissecting the retina, sclera, choroid and cornea away from the lens, iris diaphragm, hyaloid vessels and pupillary membrane. The latter tissue group was then fixed overnight in 2% glutaraldehyde in 0.1 M cacodylate pH 7.4, 0.1 M sucrose. After fixation, the tissue was washed in buffer alone and dehydrated in an ethanol series (50%, 70%, 80%, 90%, 95% and 100%). The specimens where then treated for 1 hour in hexamethyldisilazane (Polysciences Inc. Pennsylvania) and then air dried overnight. After drying, they were mounted and sputter coated with approximately 100 angstroms of gold-palladium. Specimens were visualized using a JOEL SEM 840 scanning electron microscope.
# The angiogenic effect on the cellular/vascular PM system was observed and recorded with imaging and recording means. […]
molecule,measurement,setting,value
B1,increase in the width of flattened vessels present in the whole mount preparations,"rat pups A5, Ang2 10 nanograms/ml anterior chamber, compared to the control",2.1 fold
same,staining by HU177 antibody (collagen remodeling of the basal lamina of the PM),"rat pups A5, Ang2 10 nanograms/ml anterior chamber, control showed no staining",significant staining
same,number of mitotic cells in the PM blood vessels,"rat pups A5, injection into anterior chamber (VEGF 1 nanogram/ml; Ang2 10 nanograms/ml), compared to the control (un-injected eye)",significant increase
same,diameter of capillary vessels,"rat pups A5, injection into anterior chamber (VEGF 1 nanogram/ml; Ang2 10 nanograms/ml; anti-Tie2 50 nanograms/ml), compared to the control",dramatic increase
